The target in one test is T1, radiolabeled Myc-TRIM20 (human, UniProt O15553 1-781, [35S] L-methionine label).
T1 construct: In vitro translated for GST pull-down; the peptide array of TRIM20 peptides is also written under this molecule; not shown: Myc tag
T1 sequence: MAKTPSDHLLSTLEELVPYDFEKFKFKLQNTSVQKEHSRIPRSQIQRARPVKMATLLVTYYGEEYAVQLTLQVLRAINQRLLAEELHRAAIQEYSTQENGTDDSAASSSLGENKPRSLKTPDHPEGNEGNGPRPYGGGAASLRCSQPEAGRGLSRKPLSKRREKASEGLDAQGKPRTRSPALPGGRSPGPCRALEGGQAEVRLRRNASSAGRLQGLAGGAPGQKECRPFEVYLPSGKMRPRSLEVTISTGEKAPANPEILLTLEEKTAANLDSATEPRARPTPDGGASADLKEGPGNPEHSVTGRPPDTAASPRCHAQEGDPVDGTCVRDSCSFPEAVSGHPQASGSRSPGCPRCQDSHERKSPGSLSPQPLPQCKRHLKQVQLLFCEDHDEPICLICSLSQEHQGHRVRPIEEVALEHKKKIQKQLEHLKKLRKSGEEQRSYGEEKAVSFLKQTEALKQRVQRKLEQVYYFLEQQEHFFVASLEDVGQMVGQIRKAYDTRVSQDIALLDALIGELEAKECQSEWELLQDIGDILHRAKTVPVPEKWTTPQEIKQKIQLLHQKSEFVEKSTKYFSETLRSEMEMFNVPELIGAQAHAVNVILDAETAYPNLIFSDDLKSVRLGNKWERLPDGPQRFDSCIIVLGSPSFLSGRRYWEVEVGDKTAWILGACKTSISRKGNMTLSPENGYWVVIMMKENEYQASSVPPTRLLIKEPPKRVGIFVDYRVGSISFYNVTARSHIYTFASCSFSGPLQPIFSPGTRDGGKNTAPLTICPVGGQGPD
Nature of the test: GST pull-down of radiolabeled Myc-TRIM20.

A further test addresses T2, NLRP3 (UniProt Q96P20 1-1036).
T2 construct: also called Flag-NLRP3; endogenous NLRP3
Nature of the test: co-IP of GFP-TRIM20 variants with NLRP3, HEK293 cells.

Two molecules from patent US20180236024A1 (STC UNM, published 2018) can be followed below.

T2 sequence (Q96P20 whole entry): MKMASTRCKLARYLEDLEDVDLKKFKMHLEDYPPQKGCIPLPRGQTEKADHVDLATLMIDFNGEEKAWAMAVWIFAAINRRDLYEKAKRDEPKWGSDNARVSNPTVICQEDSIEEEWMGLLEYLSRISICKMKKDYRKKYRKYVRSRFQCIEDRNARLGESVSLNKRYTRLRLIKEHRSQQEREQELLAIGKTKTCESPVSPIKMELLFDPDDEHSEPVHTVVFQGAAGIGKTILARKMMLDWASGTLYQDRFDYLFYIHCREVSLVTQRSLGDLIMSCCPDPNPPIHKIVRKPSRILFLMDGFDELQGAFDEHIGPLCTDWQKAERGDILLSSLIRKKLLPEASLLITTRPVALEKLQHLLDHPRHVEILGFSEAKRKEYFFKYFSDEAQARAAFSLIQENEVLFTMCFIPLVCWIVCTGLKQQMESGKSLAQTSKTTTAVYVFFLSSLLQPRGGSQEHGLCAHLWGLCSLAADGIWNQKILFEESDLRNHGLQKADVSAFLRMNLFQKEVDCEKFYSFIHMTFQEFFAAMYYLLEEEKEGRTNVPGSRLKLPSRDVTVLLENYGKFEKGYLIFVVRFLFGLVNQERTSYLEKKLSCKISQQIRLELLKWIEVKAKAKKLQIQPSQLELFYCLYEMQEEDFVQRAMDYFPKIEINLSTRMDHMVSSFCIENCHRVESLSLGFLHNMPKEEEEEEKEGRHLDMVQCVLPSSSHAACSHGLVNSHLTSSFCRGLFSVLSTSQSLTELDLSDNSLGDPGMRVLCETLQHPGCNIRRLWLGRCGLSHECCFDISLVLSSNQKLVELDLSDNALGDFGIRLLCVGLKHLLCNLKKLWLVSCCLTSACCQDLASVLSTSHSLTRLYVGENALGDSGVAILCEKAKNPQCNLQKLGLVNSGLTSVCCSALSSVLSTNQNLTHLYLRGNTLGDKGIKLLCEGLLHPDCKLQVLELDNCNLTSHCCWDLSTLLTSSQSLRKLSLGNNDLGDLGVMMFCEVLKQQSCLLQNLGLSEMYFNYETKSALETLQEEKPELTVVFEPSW

B1: GST-GABARAP (other)
chain: MKFVYKEEHPFEKRRSEGEKIRKKYPDRVPVIVEKAPKARIGDLDKKKYLVPSDLTVGQFYFLIRKRIHLRAEDALFFFVNNVIPPTSATMGQLYQEHHEEDFFLYIAYSDESVYGL
notes: GST fusion made in E. coli; not shown: GST tag
Regarding B1, the binding result with radiolabeled Myc-TRIM20 is “binds”.

B2: GFP-TRIM20 (full-length human TRIM20) (other)
chain: MAKTPSDHLLSTLEELVPYDFEKFKFKLQNTSVQKEHSRIPRSQIQRARPVKMATLLVTYYGEEYAVQLTLQVLRAINQRLLAEELHRAAIQEYSTQENGTDDSAASSSLGENKPRSLKTPDHPEGNEGNGPRPYGGGAASLRCSQPEAGRGLSRKPLSKRREKASEGLDAQGKPRTRSPALPGGRSPGPCRALEGGQAEVRLRRNASSAGRLQGLAGGAPGQKECRPFEVYLPSGKMRPRSLEVTISTGEKAPANPEILLTLEEKTAANLDSATEPRARPTPDGGASADLKEGPGNPEHSVTGRPPDTAASPRCHAQEGDPVDGTCVRDSCSFPEAVSGHPQASGSRSPGCPRCQDSHERKSPGSLSPQPLPQCKRHLKQVQLLFCEDHDEPICLICSLSQEHQGHRVRPIEEVALEHKKKIQKQLEHLKKLRKSGEEQRSYGEEKAVSFLKQTEALKQRVQRKLEQVYYFLEQQEHFFVASLEDVGQMVGQIRKAYDTRVSQDIALLDALIGELEAKECQSEWELLQDIGDILHRAKTVPVPEKWTTPQEIKQKIQLLHQKSEFVEKSTKYFSETLRSEMEMFNVPELIGAQAHAVNVILDAETAYPNLIFSDDLKSVRLGNKWERLPDGPQRFDSCIIVLGSPSFLSGRRYWEVEVGDKTAWILGACKTSISRKGNMTLSPENGYWVVIMMKENEYQASSVPPTRLLIKEPPKRVGIFVDYRVGSISFYNVTARSHIYTFASCSFSGPLQPIFSPGTRDGGKNTAPLTICPVGGQGPD
notes: also called T20; wild type TRIM20; not shown: GFP tag
B2: the binding result with NLRP3 is on record as “binds”.
